From paper PMC5839504 (Cell, 2017)
One block for each binder: values may come before it.

Tests used:
[1] = target: T1, S. cerevisiae Ku80vWA (residues 2-200) (S. cerevisiae, UniProt Q04437 2-200); experiment: ITC
T1 sequence (looked up): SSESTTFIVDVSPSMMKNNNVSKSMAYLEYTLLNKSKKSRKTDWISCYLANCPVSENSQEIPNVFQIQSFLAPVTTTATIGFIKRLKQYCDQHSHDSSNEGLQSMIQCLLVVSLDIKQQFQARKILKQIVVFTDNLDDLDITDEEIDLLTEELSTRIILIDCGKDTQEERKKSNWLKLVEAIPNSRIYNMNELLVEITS

[2] = target: T2, S. cerevisiae Ku70/80 heterodimer (S. cerevisiae, UniProt P32807 1-602; Q04437 1-629); experiment: pull-down
T2 sequence (looked up) 1: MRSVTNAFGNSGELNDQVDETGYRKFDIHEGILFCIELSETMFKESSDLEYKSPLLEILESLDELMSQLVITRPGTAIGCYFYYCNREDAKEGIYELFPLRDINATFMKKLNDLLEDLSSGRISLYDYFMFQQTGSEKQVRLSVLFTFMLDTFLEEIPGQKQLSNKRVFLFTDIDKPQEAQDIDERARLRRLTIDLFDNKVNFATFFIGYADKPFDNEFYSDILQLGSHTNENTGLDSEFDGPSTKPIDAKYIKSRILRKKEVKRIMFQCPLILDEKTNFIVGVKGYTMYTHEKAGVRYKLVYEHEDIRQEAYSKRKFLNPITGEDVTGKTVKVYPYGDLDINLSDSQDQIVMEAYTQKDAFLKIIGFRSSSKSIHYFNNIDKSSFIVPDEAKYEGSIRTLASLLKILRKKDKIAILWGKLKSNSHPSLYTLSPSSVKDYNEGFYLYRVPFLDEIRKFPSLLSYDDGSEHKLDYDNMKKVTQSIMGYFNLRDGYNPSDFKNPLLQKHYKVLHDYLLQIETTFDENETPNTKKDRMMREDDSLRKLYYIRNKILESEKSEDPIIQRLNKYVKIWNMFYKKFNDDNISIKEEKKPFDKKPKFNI
T2 sequence (looked up) 2: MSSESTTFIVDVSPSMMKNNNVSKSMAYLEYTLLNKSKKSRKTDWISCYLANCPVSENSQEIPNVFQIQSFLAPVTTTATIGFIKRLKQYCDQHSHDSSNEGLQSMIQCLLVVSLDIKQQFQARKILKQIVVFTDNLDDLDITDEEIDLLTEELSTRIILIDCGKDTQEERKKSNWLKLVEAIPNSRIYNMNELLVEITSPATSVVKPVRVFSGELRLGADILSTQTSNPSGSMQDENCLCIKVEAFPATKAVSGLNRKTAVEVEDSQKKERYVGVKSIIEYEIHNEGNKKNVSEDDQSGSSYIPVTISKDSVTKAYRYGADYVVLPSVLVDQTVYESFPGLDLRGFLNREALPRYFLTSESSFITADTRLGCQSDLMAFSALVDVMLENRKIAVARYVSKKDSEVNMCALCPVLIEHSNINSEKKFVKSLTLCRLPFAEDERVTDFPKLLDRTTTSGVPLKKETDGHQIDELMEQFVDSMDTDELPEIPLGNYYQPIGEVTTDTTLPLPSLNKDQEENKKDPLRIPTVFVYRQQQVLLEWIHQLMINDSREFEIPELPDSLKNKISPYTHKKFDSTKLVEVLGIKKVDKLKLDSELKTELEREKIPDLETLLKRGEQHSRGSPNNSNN

[3] = target: K. lactis Cdc13EBM (KlCdc13 residues 213-240) (Kluyveromyces lactis); experiment: ITC
[4] = target: KlCdc13EBM-N (KlCdc13 residues 213-222) (Kluyveromyces lactis); experiment: ITC

Kd [1]: 5.1 µM
Binder: EKISNSKLLSLLRSKT (peptide, UniProt P11978 100-115, looked up) [S. cerevisiae Sir4KBM (residues 100-115)]

binding result [1]: binds
Binder: EKISNSKLRSLLRSKT (peptide, UniProt P11978 100-115, looked up) [Sir4KBM L108R]

binding result [2]: binds
Binder: EKISNSKLLSLLRSKT (peptide, UniProt P11978 100-115, looked up) [Sir4KBM (GST pull-down)]

Kd [3]: 5.9 µM | Kd [4]: 15.3 µM
B1: N-terminal domain of K. lactis Est1 (KlEst1, residues 2-600) (domain or fragment)
chain: DQKLNTDLQETFSGFQKQLQSVLETDFFRDDSLMKGAIQMIHSKIMQMLLQSLIPEGLHQDITTDTGSKKSEIRSSDAHRILDLTWKHVHYPIFKYFQNWRNRNVAEGSRPNYAGHRQLNSILQKIFPQIHKLYYSTLELIFANYNLTALIPSDTRSKLNISTKKLNDDASNVLKPEDSFSIDCVMASQRCLLYIGCSQRYKIIMEHLSDRYQQADFQKPLRYLDIASTIVPSVGETFLQRGICYTHTKNFGNAAYQFVRSSLSRLPSDAGIPNFTNLLGDPNGSLFKKLLNSLDDLKVQETIKKRIINMEIMEFYILPLIGSHIFPQTWKNNRHSDRLKHFQTLLFDKIEIRYIKNISMIFQDLILLIGSFHMYQMINGVSSNTTSSAATIMPNDKTLMNGNGSANSINNSGNSNIRSIQSETKFLEFIFKFFTHLIDKVIMKEFKNCEMFQYLAMARIMMCWIKSHKNVLKFAHRSTSFCQSMVNLTNELLSSNDLSISFEHLHRPTRDYFYEEDIMLKEFGPTKFTLSDFNDEKLLSMDNLPDRLVGKSKNKLTAKEEHSSRVQVLVYSNKKFLEKNCCGFKLDTEKKRYVHTAVK
